{"source": "patent US20220031803A1", "about": "“ANTIBACTERIAL COMPOSITION COMPRISING MICROCIN S AND ANTIBIOTIC” (priority 2017, published 2022)", "molecules": {"B1": {"name": "Microcin S: Antimicrobial polypeptide of E. coli G3/10 (SEQ ID NO: 7), prepared in a cell-free E. coli based in vitro expression system (protein, listed as Escherichia coli)", "chain": "NANSNYEGGGSRSRNTGARNSLGRNAPTHIYSDPSTVKCANAVFSGMVGGAIKGGPVGMTRGTIGGAVIGQCLSGGGNGNGGGNRAGSSNCSGSNVGGTCSR"}}, "tested_on": "E. coli BL21 (DE3)+kan^R", "type": "cell-based, Escherichia coli", "settings": "OD600 growth curve, 37° C., 96-well plates, duplicates averaged", "procedure": "Growth was determined by measurement of the optical density at 600 nm (OD600) for 18 hours in 96-well plates at 37° C. The profile of the OD600 curves corresponds to the bacterial growth. […] Each sample was prepared in duplicate and the results averaged.\nAntimicrobial activity was investigated in a 96-well plate by incubating E. coli BL21 (DE3)+kan^R bacteria either with microcin S alone or with microcin S and an antibiotic at 37° C. for 18 h.\nTo investigate whether microcin S in combination with antibiotics can likewise achieve synergistic effects on sensitive bacteria, growth profiles of the microcin S-sensitive indicator strain Escherichia coli BL21 (DE3) provided with a kanamycin resistance gene are recorded photometrically in a microtitre plate of 96-well format. […] After loading with the individual samples, the microtitre plate is incubated directly in a photometer (Epoch2 microplate reader from Biotek, USA) at 37° C. and 200 rpm (double-orbital, ∞) for 15 h. The optical density at 600 nm wavelength (OD600) is measured simultaneously for all wells at regular intervals. The graphic evaluation of the recorded measurement points is done subsequently with the aid of Microsoft Excel (Microsoft Corporation, USA). […]", "data": [{"molecule": "B1", "values": [{"measurement": "Time of incubation after which the antibacterial effect is observed (collapse of bacterial growth)", "result": 5, "unit": "h"}]}]}
